In patent US20240262892A1 (NANJING VAZYME BIOTECH, published 2024):
Read-outs that look alike come from different tables or passages of the source.

Assays:
[1] = target: T1, SARS-CoV-2 RBD (receptor binding domain of spike protein of SARS-CoV-2) (SARS-CoV-2, UniProt P0DTC2 319-541); experiment: HTRF ACE2/RBD binding assay (665/620 ratio); blocked ligand: ACE2
[2] = target: T1, SARS-CoV-2 RBD (receptor binding domain …)
[3] = target: T1, SARS-CoV-2 RBD (receptor binding domain …); experiment: ELISA, SARS-CoV-2 RBD coated on the plate, anti-human IgG-HRP, OD450
[4] = target: T1, SARS-CoV-2 RBD (receptor binding domain …); remark: listed apart in the source
[5] = target: T2, SARS-CoV-2 S1 protein NTD (N-terminal domain of spike protein of SARS-CoV-2) (SARS-CoV-2, UniProt P0DTC2 14-305); experiment: biolayer interferometry, ForteBio Octet RED96e, NTD 250 nM to 7.81 nM, 1:1 model
T2 construct: also called S1-NTD; NTD of S1 subunit

[6] = target: T3, SARS-CoV-2 S1 (S1 subunit of spike protein of SARS-CoV-2) (SARS-CoV-2, UniProt P0DTC2 14-685); experiment: ELISA, SARS-CoV-2 S1 coated on the plate, anti-human IgG-HRP, OD450
T3 construct: domain: S1; also called SARS-CoV-2 Spike protein S1 domain

[7] = target: T2, SARS-CoV-2 S1 protein NTD (N-terminal …); experiment: ELISA, S1-NTD coated on the plate, antibody at one concentration, anti-human IgG-HRP
[8] = target: T1, SARS-CoV-2 RBD (receptor binding domain …); experiment: ELISA, S1-RBD coated on the plate, antibody at one concentration, anti-human IgG-HRP
[9] = target: T1, SARS-CoV-2 RBD (receptor binding domain …); experiment: HTRF ACE2/RBD binding assay, competition with ACE2

| Binder | IC50 [1] | Kd [2] | EC50 [3] | Kd [4] | Kd [5] | EC50 (read off the curve) [6] | OD450 [7] | OD450 [8] | IC50 [9] |
| --- | --- | --- | --- | --- | --- | --- | --- | --- | --- |
| Antibody 8-3 (antibody, V domains shown) VH: EVQLVESGGGLVQPGGSLRLSCAASGITVSSNYMNWVRQAPGKGLDWVSVIYSGGSTFYADSVKGRFIISRDNSKNTLFLQMDSLRVEDTAVYYCARDLVVRGVDIWGQGTMVTVSS VL: DIQLTQSPSFLSASVGDRVTITCRASQGISSDLAWYHQKPGKAPKLLIYAASTLQSGVPSRFSGSGSGTEFTLTISSLQPEDFATYYCQQLNSYRGLIFGGGTKVEIK | 0.109 mg/L | 1.55 nM | 0.0483 mg/L |  |  |  |  |  |  |
| Antibody 8-1 (antibody, V domains shown) VH: EVQLVESGGGLIQPGGSLRLSCAASGLTVSSNYMTWVRQAPGKGLEWVSVIYSGGSTFYAESVKGRFTISRDNSKNTLYLQMNSLRAEDTAVYYCARDLVVYGMDVWGQGTTVIVSS VL: DIQLTQSPSFLSASVGDRVTITCRASQGISSDLAWYQQKPGKAPKLLIYAASTLQSGVPSRFSGSGSGTEFTLTISSLQPEDFATYYCQQLNSHPLAFGPGTKVDIK | 0.103 mg/L |  | 0.0506 mg/L | 0.047 nM |  |  |  |  |  |
| Antibody 9-1 (antibody, V domains shown) VH: QLQLQESGPGLVKPSETLSLTCTVSGGSISSSTYYWAWIRQPPGKGLEWIGSIYYSGSTYYNPSLKSRVTISVHTSKNQFSLKLTSVTAADTAVYYCARSMGLHDYWGQGTLVTVSS VL: DIQMTQSPSSLSASVGDRVTITCRASQGIGNSLAWYQQKPGRAPKFLLYAASTLESGVPSRFSGSGSGTHFTLTISSLQPEDFATYFCQQYYSTPPYTFGQGTRLEIK | 0.105 mg/L | 0.835 nM | 0.0886 mg/L |  |  |  |  |  |  |
| Antibody 13-17 (antibody, V domains shown) VH: QDQLVQSGAEVKKPGASVKVSCKVSGYTLPELSLHWVRQPPGKGLEWMGGFDPEDGETIYAQKFQGRVTMTEDTSTDTAYMELSSLRSEDTAVYYCAASTPMGGHTDWLDPWGQGTLVTVSS VL: QSVLTQPPSVSAAPGQKVTISCSGSSSNIGNNYVSWYQQLPGTAPKLLIYDNNKRPSGIPDRFSGSKSGTSATLGITGLQTGDEADYYCGTWDSSLSAGVFGGGTKLTVL |  |  |  |  | 4.39 nM | ~0.1 mg/L | 3.91 | 0.0815 |  |
| Antibody 9-8 (antibody, V domains shown) VH: EVQLVESGGGVVQPGGSLRLSCAASGFTFDDYAIHWVRQAPGKGLEWVSLISGDGGTTYYADFVKGRFTISRDNSKNSLYLQMNSLRTEDTALYYCAKDIPVCSSTICYRFTARLHGMDVWGQGTTVTVSS VL: DIQMTQSPSSLSASVGDRVTITCRASQSISSYLNWYQQKPGKAPKLLIYTASSLQSGVPSRFSGSGSGADFTLTISSLQPEDFATYYCQQRYSTPLTFGGGTKVEIK |  | 4.75 nM | 0.0243 mg/L |  |  |  |  |  | 4.14 mg/L |
| Antibody 5-10 (antibody, V domains shown) VH: EVQLLESGGGLVQPGGSLRLSCAASGFTFSSYAMSWVRQAPGKGLEWVSAIVGSGGSTYYADSVKGRFIISRDNSKNTLYLQMNSLRAEDTAVYYCAKSLIYGHYDILTGAYYFDYWGQGTLVTVSS VL: DIQMTQSPSSVSASVGDRVTIPCRASQGIGNWLAWYQQKPGKAPKLLIYAASSLQSGVPSRFSGSGSGTDFTLTISSLQPEDFATYYCQQANSFPPFGQGTRLEIK |  | 4.32 nM | 0.0269 mg/L |  |  |  |  |  |  |
| Antibody 12-11 (antibody, V domains shown) VH: QVQVVQSGAEVKKPGASVKVSCKVSGYTLIEISIHWVRQAPGKGLEWMGGFDPEAGETIYAQKFQGRVTMTEDTSTDTAYMEVSSLRSEDTAVYYCATGPAIAAAETNWFDLWGQGTLVTVSS VL: QSALTQPASVSGSPGQSITISCTGTSSDVGSYNYVSWYQQHPGKAPKLMIYDVTKRPSGVPDRFSGSKSGNTASLTISGLQAEDEADYYCSSYTSSSTWVFGGGTKLTVL |  |  |  |  | 5.82 nM | ~0.1 mg/L | 3.93 | 0.0638 |  |
| Antibody 12-13 (antibody, V domains shown) VH: QVQVVQSGAEVKKPGASVKVSCKVSGYTLTELSIHWVRQTPGKGLEWMGGFDPEDGETIYAQWLQGRVTMTEDTSTDIAYMELSSLRHEDTAVYYCATGPAIAGAGTNWFDPRGQGTLVIVSS VL: QSALTQPASVSGSPGQSITISCTGTSSDVGGYNYVSWYQQHPGKAPKLMIYDVSKRPSGVPDRFSGSKSGNTASLTISGLQAEDEADYYCTSYTNSSTWVFGGGTKLTVL |  |  |  |  | 5.61 nM | ~0.07 mg/L | 3.96 | 0.06 |  |
| Antibody 34-2 (antibody, V domains shown) VH: EVQLVESGGGLVQPGRSLRLSCAASGFTFDESAMHWVRQAPGEGLEWVSGISWNSGRIAYADSVRGRFTISRDNAKNSLYLQMNSLRAEDTALYFCALTTSGWFSFDYWGQGTLVTVSS VL: SYVLTQPPSVSVAPGKTARITCGGNNIGSKSVHWYQQKPGQAPVPVIYYDSDRPSGIPERFSGSNSGNTATLTISRVEVGDEADYYCQVWDSSSDRAVFGGGTTLTVL | 0.115 mg/L | 0.217 nM | 0.0493 mg/L |  |  |  |  |  |  |
| Antibody 12-9 (antibody, V domains shown) VH: EVQLVESGGGLVKPGGSLRLSCAASEFTFSSYSMNWVRQAPGKGLEWVSSISSSGSDIYYADSVKGRFTISRDNAKKSLYLQMNSLRVEDTAVYYCATNGGAHSSTWSFYGMDVWGQGTTVTVSS VL: SYELTQPPSVSVSPGQTATITCSGDKLGDKYACWYQQRPGQSPVLVIYQDSKRPSGIPERFSGSNSGNTATLTIGGTQAMDEAAYFCQAWDSNTGVFGGGTKLTVL |  |  |  |  | 16.7 nM | ~0.03 mg/L | 3.76 | 0.0764 |  |
| Antibody 12-17 (antibody, V domains shown) VH: EVQLVESGGGLVKPGGSLRLSCAASGFTLNSYSMNWVRQAPGKGLEWVSSISSTSSDIYYADSVKGRFTISRDNAKNSVDLQMNSLRAEDTAVYYCATNGGAHRNTWSFYGMDVWGQGTTVTVSS VL: SYELTQPPSVSVSPGQTASITCSGDKLGDKYASWYQQKPGQSPVLVIYQDTKRPSGIPERFSGSNSGNTVTLTISGTQAMDEADYYCQAWDSSTGVFGGGTKLTVL |  |  |  |  | 5.49 nM | ~0.04 mg/L | 3.95 | 0.0641 |  |
| Antibody 14-4 (antibody, V domains shown) VH: QMQLVQSGPEVKKPGTSVKVSCKASGFTFTTSAVQWVRQARGQRLEWIGWIVVGSGNTNYAQKFQERVTITRDMSTSTGYMELSSLRSEDTAVYYCAAPNCNRTSCDDGFDIWGQGTMVTVSS VL: not shown | 0.103 mg/L | 2.62 nM | 0.0162 mg/L |  |  |  |  |  |  |
| Antibody 29-13 (antibody, V domains shown) VH: QITLKESGPTLVKPTQTLTLTCTFSGFSLSTSGVGVGWIRQPPGKALEWLALIYWDDDKRYSPSLKSRLSITKDTSKNQVALTVTNMDPVDTATYYCAHRRPGPGSYYFDYWGQGTLVTVSS VL: not shown | 0.0954 mg/L | 1.28 nM | 0.00473 mg/L |  |  |  |  |  |  |
| Antibody 29-2 (antibody, V domains shown) VH: QITLKESGPTLVKPTQTLTLTCTFSGFSLSSSGMGVGWIRQPPGKALEWLALIYWNDDKRYSPSLKSRLTITKDTSKNQVVLTLTNMDPVDTATYYCAHTTLYNNCPFDYWGQGTLVTVSS VL: SYVLTQPPSVSVAPGKTARITCGGNNIGSYSVHWYQQRPGQAPVLVIYYDSDRPSGIPERFSGSNSGNTATLTISRVEAGDEADYYCQVWDNSSNHPWVFGGGTKLTVL | 0.117 mg/L | 0.392 nM | 0.0372 mg/L |  |  |  |  |  |  |
| Antibody 14-8 (antibody, V domains shown) VH: QVQLVQSGAEVKKPGASVKVSCKASGYTFTGYYIHWVRQAPGKGPEWMGWINPNSGGTNYAQKFQGWVTMTRDTSISAAYMELSRLKFDDTAIYYCAKSGEKVGADLGYYDYGMDLWGQGTTVTVSS VL: SYELTQPPSVSVSPGQTARITCSGDALPKQYAYWYQQKPGQAPVMVIYKDTERPSGIPERFSGSSSGTTVTLTISGVQAEDEADYNCQSVDSSGAYVVFGGGTKLTVL |  |  |  |  | 7.08 nM | ~0.1 mg/L | 3.98 | 0.0693 |  |
